This is an account of results in article PMC4507941 (PLoS ONE, 2015).

One data set concerns recombinant pitrilysin. Description: 40 nM pitrilysin in 50 mM Tris/HCl buffer (pH 7.4) containing 200 mM NaCl. As to conditions: human, 37°C, up to 60'.
The test system of data set [1] is pitrilysin. As to the kind of experiment: 40 nM pitrilysin added to hIAPP preincubated at 37°C to induce oligomer formation. As to conditions: human, up to 1hr.
In data set [2] the test system is pitrilysin. Description: pitrilysin (400 nM) added to hIAPP oligomers generated with rat cardiac myocytes or from HIP rat cardiac myocytes. As to conditions: human, 37°C, up to 1hr.
In data set [3] the target is T1, pitrilysin (Homo sapiens, UniProt Q5JRX3).
T1 construct: made in house; host or cells: Sf9 cells
T1 sequence (Q5JRX3 29-1037): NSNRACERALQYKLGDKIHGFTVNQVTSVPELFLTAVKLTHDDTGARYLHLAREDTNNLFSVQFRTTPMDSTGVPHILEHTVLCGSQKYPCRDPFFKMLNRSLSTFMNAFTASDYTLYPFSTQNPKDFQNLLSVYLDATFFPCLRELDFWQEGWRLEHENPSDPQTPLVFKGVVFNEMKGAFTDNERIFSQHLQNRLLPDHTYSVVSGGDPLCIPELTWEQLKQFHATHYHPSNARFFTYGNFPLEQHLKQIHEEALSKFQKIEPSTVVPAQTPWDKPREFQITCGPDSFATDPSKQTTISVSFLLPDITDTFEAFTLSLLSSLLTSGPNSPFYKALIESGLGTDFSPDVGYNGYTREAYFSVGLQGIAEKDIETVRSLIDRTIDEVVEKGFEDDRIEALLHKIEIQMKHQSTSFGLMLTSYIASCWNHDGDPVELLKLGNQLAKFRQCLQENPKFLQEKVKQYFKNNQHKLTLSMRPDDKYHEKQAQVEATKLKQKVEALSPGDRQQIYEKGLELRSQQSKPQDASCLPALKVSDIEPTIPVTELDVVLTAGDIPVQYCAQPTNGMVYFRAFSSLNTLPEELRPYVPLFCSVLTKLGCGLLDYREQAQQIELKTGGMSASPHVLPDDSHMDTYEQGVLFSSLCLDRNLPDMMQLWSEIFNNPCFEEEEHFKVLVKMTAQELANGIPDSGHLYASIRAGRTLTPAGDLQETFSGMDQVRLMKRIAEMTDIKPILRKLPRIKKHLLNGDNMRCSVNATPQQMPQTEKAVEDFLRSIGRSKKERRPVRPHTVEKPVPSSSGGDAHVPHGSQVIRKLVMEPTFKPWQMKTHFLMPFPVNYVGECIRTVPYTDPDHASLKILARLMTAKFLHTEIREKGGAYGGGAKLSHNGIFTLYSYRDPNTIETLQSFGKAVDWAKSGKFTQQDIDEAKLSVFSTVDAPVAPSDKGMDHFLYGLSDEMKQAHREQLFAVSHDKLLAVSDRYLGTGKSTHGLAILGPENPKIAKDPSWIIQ
The settings on record: ref [23], cited from earlier work. The method, then:
(§1) Table 1 Comparison of enzymatic characters of pitrilysin and IDE towards different substrates. | column: kcat (min^-1); KM (μM); kcat/KM (min^-1μM^-1) || Having established IAPP as a substrate of pitrilysin, the kinetic properties of the reaction were determined. The rate of hIAPP hydrolysis was determined by measuring the disappearance of the substrate by HPLC, while k cat was determined based on the linear initial rate of hIAPP hydrolysis at a saturating hIAPP concentration (20 μM) using a molecular mass of 117 kDa for pitrilysin. The KM for hIAPP was determined by using it as an alternate substrate inhibitor of the hydrolysis of the fluorogenic peptide Abz-GGYRRGQ-EDDnp. The kcat and KM values of pitrilysin with hIAPP are 13.5 ± 0.1 m ...

Data set [4] concerns Insulin-degrading enzyme (IDE). The settings on record: cited from earlier work. As to the method: Table 1 Comparison of enzymatic characters of pitrilysin and IDE towards different substrates. | column: kcat (min^-1); KM (μM); kcat/KM (min^-1μM^-1)
For data set [5], the target named is T1, pitrilysin. As to the kind of experiment: Cleavage of peptide substrates by recombinant pitrilysin (HPLC substrate disappearance; KM as alternate substrate inhibitor of a fluorogenic peptide). It is filed as biochemical. As to conditions: for Degradation of monomeric IAPP by pitrilysin: monomeric peptide 20 μM, HPLC. The method, then:
Pitrilysin was produced in Sf9 cells (ATCC, Manassas, VA, USA) and purified as described.. The purity of recombinant pitrilysin is greater than 97% as judged from Coomassie blue stained SDS-PAGE gels using NIH ImageJ software (S1 Fig).
Monomeric hIAPP (20 μM) was incubated with 40 nM pitrilysin in 50 mM Tris/HCl buffer (pH 7.4) containing 200 mM NaCl at 37°C for various times and analyzed by reverse phase HPLC [22, 23]. hIAPP and its cleavage products were collected manually and identified by mass spectrometry.
as §1, with “Having” for “Table 1 Comparison of enzymatic characters of pitrilysin and IDE towards different substrates. | column: kcat (min^-1); KM (μM); kcat/KM (min^-1μM^-1) || Having”, “min^-1 and 0.38 ± 0.01 μM, respectively (Table 1).” for “m ...”

The test system of data set [6] is Insulin-degrading enzyme (IDE). As to the kind of experiment: Cleavage of peptide substrates by insulin-degrading enzyme (IDE), determined as for pitrilysin. It is filed as biochemical. The settings on record: mean ± SEM. The method, then:
as §1, with “Having” for “Table 1 Comparison of enzymatic characters of pitrilysin and IDE towards different substrates. | column: kcat (min^-1); KM (μM); kcat/KM (min^-1μM^-1) || Having”, “min^-1 and 0.38 ± 0.01 μM, respectively (Table 1).” for “m ...”
We therefore compared the enzymatic properties of these two enzymes in terms of hIAPP degradation. The kcat and KM values for IDE with hIAPP were determined as above yielding values of 294 ± 0.4 min^-1 and 3.11 ± 0.20 μM, respectively. […] (Table 1). Thus relative to IDE, pitrilysin is a more specific IAPP degrading enzyme.

Data set [7] has as its target T1, pitrilysin. Description: In vitro cleavage of oligomeric hIAPP by pitrilysin (SDS-PAGE, Western blot). It is filed as biochemical. As to conditions: hIAPP oligomers (12, 28, 36, 40 kDa and large oligomers), 40 or 400 nM pitrilysin, 37°C, 1 hr. As to the method:
hIAPP was incubated at 37°C for 1 hr. with gentle shaking to induce hIAPP oligomerization. To produce low molecular weight oligomers, hIAPP oligomerization was initiated in saline solution at 37°C using 50 μM recombinant hIAPP and then incubated with myocytes for 2 hours at room temperature. Similarly cardiac myocytes from hIAPP expressing rats (HIP rats) contain amylin oligomers and thus both were used. Pitrilysin was added to oligomers and incubated for 1 hour at 37°C. The reaction was then subjected to SDS-PAGE and Western blotting with A11 antisera for large oligomer or with mouse anti-hIAPP for detection of monomers and small oligomers. Adult cardiac myocytes were isolated from wild-type Sprague-Dawley rats and from HIP rats as described.
Oligomers of hIAPP were generated from hIAPP incubated with rat cardiac myocytes and then incubated with pitrilysin (400 nM) at 37°C for 1 hr. Reactions were analyzed by Western blot analysis using mouse monoclonal anti-human amylin antibody E-5. b. […] Reactions were analyzed by Western blots using rabbit anti-IAPP that recognizes monomeric IAPP or rabbit anti-oligomer antibody A11. rIAPP (20 μM) was treated at the same condition as a negative control.
Background: Immunoblotting shows a protein as a band on a membrane.

The mark [8] stands for this setting: 20 μM hIAPP, 40 nM pitrilysin, 37°C, HPLC peaks identified by mass spectrometry.
The mark [9] stands for this setting: 40 nM pitrilysin, 50 mM Tris/HCl pH 7.4, 200 mM NaCl, 37°C.

Entries after “also recorded” stand apart in the source; their conditions may differ. Read-outs that look alike come from different tables or passages of the source. Where no end group is shown, it is not given here.

With “KCNTATCATQRLANFLVHSSNNFGAILSSTNVGSNTY-NH2”, the cleaved bond result with recombinant pitrilysin is “Phe15-Leu16, first_seen; also recorded: Gly24-Ala25, major; also recorded: Ala25-Ile26, major; also recorded: Arg11-Leu12, minor; also recorded: Leu12-Ala13, minor; also recorded: Ala13-Asn14, minor; also recorded: Asn14-Phe15, minor”. The not cleaved result in the data set on pitrilysin [1] is “not able to degrade large hIAPP oligomers (1hr)”; in the data set with pitrilysin [2], “inability of pitrilysin to reduce the amount of hIAPP oligomers of 12 kDa, 28 kDa, 36 kDa, or 40 kDa (1 hr)”.
Insulin: in the data set with pitrilysin [3], the Km (usually the concentration of substrate that gives half-maximal velocity) was 54.5 ± 5.5 µM; the kcat (as a rule, the maximal rate divided by the concentration of active sites) was 0.0033 ± 0 s⁻¹; the kcat/KM is on record as 0.0037 min^-1μM^-1. In data set [4] (ref [44]), the Km is 0.13 ± 0.02 µM, the kcat was 0.00933 ± 0.00017 s⁻¹ and the kcat/KM was 4.3 min^-1μM^-1.
Take “islet amyloid polypeptide (KCNTATCATQRLANFLVHSSNNFGAILSSTNVGSNTY; not fully specified (C-terminus); cysteine pairing not given here) [hIAPP, Human islet amyloid polypeptide (IAPP, amylin), from Anaspec; substrate of pitrilysin and IDE]”: the “Initial cleavage sites on hIAPP by pitrilysin” value with pitrilysin [5] (setting [8]) is “Phe^15-Leu^16, Gly^24-Ala^25 and Ala^25-Ile^26”. The “Secondary (subsequent) cleavage sites on hIAPP by pitrilysin” value with pitrilysin [5] (setting [8]) was “Arg^11-Leu^12, Leu^12-Ala^13, Ala^13-Asn^14 and Asn^14-Phe^15”. Besides, the “Degradation of monomeric IAPP by pitrilysin” value in the data set with pitrilysin [5] (setting [9]) is given as “hIAPP degradation is indeed catalyzed by pitrilysin”. The Km came out at 0.38 ± 0.01 µM with pitrilysin [5] (pitrilysin, hIAPP as alternate substrate inhibitor of hydrolysis of fluorogenic peptide Abz-GGYRRGQ-EDDnp, mean ± SEM) and 3.11 ± 0.2 µM in data set [6] (determined as for pitrilysin (alternate substrate inhibitor)). Also, the turnover number (kcat) with pitrilysin [5] (pitrilysin, linear initial rate of hIAPP hydrolysis at saturating 20 μM, substrate disappearance by HPLC, 50 mM Tris/HCl pH 7.4, 200 mM NaCl, 37°C, molecular mass 117 kDa, mean ± SEM) worked out at 0.225 ± 0.0017 s⁻¹; in data set [6] (determined as for pitrilysin (HPLC, saturating hIAPP)) it was 4.9 ± 0.0067 s⁻¹. Also, the “Degradation of oligomeric hIAPP by pitrilysin” value with pitrilysin [7] is “not able to degrade; also recorded: does not degrade”.
For “rIAPP: rodent (rat) islet amyloid polypeptide, does not form oligomers”, in the data set with pitrilysin [5] (setting [9]), the “Degradation of monomeric IAPP by pitrilysin” value was “degrades monomeric rat IAPP”.
Regarding amyloid β peptide 1–40 [Aβ 40], in the data set with pitrilysin [3] (listed as Aβ1–40), the kcat/KM was 1.94 min^-1μM^-1. Moreover, in the data set with pitrilysin [3], the Km is 1.7 ± 0.1 µM and the kcat was 0.055 ± 0.0017 s⁻¹. In addition, in data set [4] (ref [43]), the Km was 0.87 ± 0.1 µM, the turnover number (kcat) was 3.68 ± 0.183 s⁻¹ and the kcat/KM is recorded as 250 min^-1μM^-1.
